The source of these data is the nanobody polyreactivity screen of Harvey et al. (2022).

A short description of the series: yeast display, Sf9 membrane polyspecificity reagent, FACS + sequencing; frameworks hold sequencing errors. The procedure, abridged: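 In a synthetic yeast display library (Saccharomyces cerevisiae BJ5465), nanobody expression was induced with galactose for 36–48 hours. FACS gates were set low and high (top ~1%) using anti-HA fluorescence for expression and streptavidin fluorescence for binding of the Sf9 membrane reagent. Each polyreactivity label is drawn from the gate of origin.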
As to “QVQLVESGGGLVQAGGSLRLSCAASGSIFNYYAMGWYRQAPGKERELVATITTRDGTTYYADSVKGRFTISRDNAKNTVYLQMNSLKPEDTAVYYCAKSWWPSRRTYSFYYWGQGTQVTVSS”, the “polyreactivity (PSR sort gate)” value was “high polyreactivity”. For “QVQRVESGGGLVLAGGSLRLSCAASAHIFAWYAMGWYRQAPGNERELVADISSRGGSTYYADSVKGRITISRDNAKNTVYLQMNSLKPEDTAVYSCAAVCYWTQDYDYWGQGTQVTVSS” the value was “low polyreactivity”. For “KVQLVESGGGLVQAGGSLRLSCAASGITFYDYDMGWYRQEHGKERELVSAITWNGGSTYYADSVKGRFTISRDNAKNTVYLQMNSLKPVDTAVYYCAAESYYIYYYWGQGTQVTVSS” the value was “high polyreactivity”; for “QVQLVESGGGLVQAGGSLRLSCAASGIIFYPYAMGWYRQAPGKERELVAAISIGGGSTYYADSVKGRFTISRDNAKNTVYLQMNSLKPEDTAVYYCAAGTPYGILGYYYWGQGTQVTVSS”, “low polyreactivity”; for “QVQLVESGGGLVQAGGSLRLSCAASGSTFNGYAMGWYRQAPGKERELVADISRGDRTNYADSVKGRFTISRDNAKNTVYLQMKSLKREDTAVYYCAKDWLTDDPDKDPSVEYDYWGQGTQVTVSS”, “low polyreactivity”. In the case of “QVQLVESGGGLVQAGGSLRLSCAASGRTLYVYTMGWYRQAPGKERELVASISSGVGTNYADSVKGRFTISRDNAKNTVYLQMNSLKPEDTAVYYCAARFRYYRHYYWGQGTQVTVSS” it was “high polyreactivity”; in that of “QVQLVESGGGLVQAGGSLRLSCAASGSTLGWYGMGWSRQAPGKERELVAAIDSGGNTYADSVKGRFTISRDNAKNTVYLQMNSLKPEDTAVYYCAVDGGEFSSYGYWGQGTQVTVSS”, “low polyreactivity”; in that of “QVQLVESGGGLVQAGGSLRLSCAASGFTFAFYAMGWYRQAPGKERELVDAIRRTGSTNYADSVKGRFTISRDNAKNTVYLQMNSLKPEDNAVYYCAKTLWYDRGVGYWGQGTQVTVSS”, “high polyreactivity”. Take “QVQLVESGGCLVQAGGSLRLSCAASGRIFIRYTMGWYRQAPGKERELVAAISKSGGRTYYADSVKGRFTISRDNAKNTDYLQMNSLKPEYTAVYDCNKDTDSQYSWGQGTQVTVSS”: the “polyreactivity (PSR sort gate)” value is reported as “high polyreactivity”. For “QVQLVESGGCLVQAGGSLRLSCAASGSIFGGNAMGWSRQAPGKEREFVAAITVSDGSTYYADSVKGRFTISRDNAKKTVYLQMNSLKPEDTAVYYCAAGGFYYPHYDYWGQGTQVTVSS” the value was “low polyreactivity”; for “QVQLVESGGGLVQAGGSLRLICAASGNIFSYNAMGWYRQAPGKERELVAAISRRGGSTFYADSVKGRFTISRDKAKNTVYLQMNSLKPEDTAVYYCAASRNRYSYGYWGQGTQVTVSS”, “high polyreactivity”. As for “QVQLVESGGGLVQAGGSLRLSCAASGSTFGTNAMGWYRQAPGKERELVAAISTGGSTYYADSVKGRFTISRDNAKNTVYLQMNSLKPEDNAVYYCAALADYVRRASDYWGQGTQVTVSS”, the “polyreactivity (PSR sort gate)” value was “low polyreactivity”. In the case of “QVQLVESGGGLVQAGGSLRLSCAASGRISLSNAMGWYRQAPGKEREFVAAITKRSDRTYYADSVKGRFTISRDNAKNTVYLQMNSLKPEDTAVYYCAAKPLFGTRDDYWGQGTHVTVSS” it was “low polyreactivity”; in that of “QVQLVESGGGLVQAGGSLRLSCAASGSIFPSYAMGWYRPAPGIERELVAAINWDGGSTFYADSVKGRFTISRDNAKNTVYLQMNSLKPEDTAVYYCAKYTYQEIRNVGRRGHYYWGQGTQVTVSS”, “low polyreactivity”. “QVQLVESGGGLVQAGGSLRLSCAASGSTFRCYAMGGYRQATGKERELVAAIRSAGSTDYADSVKGRFTISRDNAKITVYLQMNILKQEDTAVYYCAAYFRYRSSRYGYWGQGTQVTVSS”: the “polyreactivity (PSR sort gate)” value is “high polyreactivity”. For “QVQLVESGGGLVQAGGSLRLSCAASGSTIQLYAMGWYRQAPGKERELVAAITSSAGRTYYADSVKGRFTISRDNAKNTVYLQMNSLKPEDTAVYYCAKDGSFTFWGQGTQVTVSS” the value was “low polyreactivity”; for “QVQLVESGGGLVQAGGSLRLSCAASGSTFAINAMGWYRQAPGKERELVAAITSGGGTNYADSVKGRFTISRDNAKNTVFLQMISLKPEDTAVYYCYGRVYWYYPMDYWGQGTQVTVSS”, “low polyreactivity”; for “QVQLVESGGGLVQAGGSLRLSCAASGRIFEIYAMGWYRQAPGKERELVAAITDSGGSTYYAYSVKGRFTISRDNAKNTVYLQINSLKPEDTAVYYCAAVGYSYETWLFYYWGQGTQVTVSS”, “low polyreactivity”. As to “QVQLVESGGGLVQAGGSLRLSCAASGSTFFSNTMGWYRQAPGKERELVAAITSRGGRTYYADSVKGRFTISRDNAKNTVYLQMNSLKPEDTAVYYCAARFVLHGVYLKFYWGQGTQVTVSS”, the “polyreactivity (PSR sort gate)” value was “high polyreactivity”. In the case of “QVHLVESGGGLVQAGGSLRLSCAASGSNFYWNAMGWYRQAPGKESELFAAISSGGRTYYADSLKGRFTISRDNAKNTVYLQLNSLKREDTAFYYCNAAGWIFPSFSPMDYWGQGTQVTVSS” it was “low polyreactivity”; in that of “QVQLVESGGGLVQAGGSLPLSCAAYGFTFWYYAMGWYRQAPGKERELVAAISTGGRTNYADSVKGRFTISRDNAKNTVYLQMNSLKPEDTAFYYCAADQSYFYLYRYRFDYWGQGTQVTVSS”, “high polyreactivity”; in that of “QVQLVESGGGLVQAGGSLRLSCAASGITFASYAMGWYRQAPGKERELVAAISTRSGGTYYADSVKGRFTISRDNAKNTVYLQMNSLKPEETAVYYCAAYNVIYTRRMYYWGQGTQVTVSS”, “high polyreactivity”.

For the sequence “QVQLVESAGGLVQAGGSLRLSCHASGLTVRTYDMGWYRQEPGKERELVAAITTGGSTYYADSVKGRFSISRDNAKNTVYLQMNSLKPEDTAVYYCAADFIRYINRLLYDFWGQGTQVTVSS”, the “polyreactivity (PSR sort gate)” value was “low polyreactivity”. In the case of “QVQLVESGGGLVQARGSLRLSCAASGRTLYDYAMGWYRPAPGKERELVAAISSSGATTYYADSVKGRFTISRDHAKNTVYLQMNSLKPEDTAVYYCAAESVHQAWSGYYYWGQGTQVTVSS” it was “high polyreactivity”; in that of “QVQLVESGGGLVQAGGSLRLSCAASGRISFVNAMGWYRQAPGKERELVAAISRGGSTNYADSVKGRFTISRDNAKNTVYLQMNSLKPEDTAVYYCAAQGNNYVRHTYGYWGQGTQVTVSS”, “low polyreactivity”; in that of “QVQLVESGGGLVQAGGSLRLSSAASGITFYYYAMGWYRQAPGKERELVAAINWSGTSTYYADSVKGRFTISRDNAKNTVYLQMNSLKPEDTAVYYCNAERGRSFWWAYDYWGQGTQVTVSS”, “low polyreactivity”. Consider “QVQLVESGGGLVQAGGSLRLSCAASGSIFVYNAMAWYRPAPGKERELVAAISRGGRTYADSVKGRFTISRDNAKNTVYLQMNSLKPEDTAVYYCAAQGYYRSWYSRQGHYDYWGQGTQVTVSS”, for which the “polyreactivity (PSR sort gate)” value was “high polyreactivity”.

Take “QVQLVESGGGLVQAGGSLRLSCAASGFISSYYAMGWYRQAPGKERELVAAITSGGRTYYADSVKGRFTISRDNAKNTDYLQMNSLKPEDTAVYYCGKYSRTNAFDYWGQGTQVTVSS”: the “polyreactivity (PSR sort gate)” value is “high polyreactivity”.

Consider “QVQLVESGGGLVQAGGSLRLSCAASGGTFYHNVMGWYRQAPGKERELVAAIRYSGGRTYYADSVKGRFTLSRDNAKNTVYLQMNSLKPEDTAVYYCAVRSYYGPFGYWGQGTQVTVSS”, for which the “polyreactivity (PSR sort gate)” value is reported as “high polyreactivity”. For “QVQLVESGGGLVQAGGSLRLSCAASGITIRRYAMGWYIQAPGKERELVAAITTGGGGTYYADSVKGRFTISRDNAKNTVYLQMNSLKPEDTAVYYCAATYWRTYPSYYWGQGTQVTVSS”, the “polyreactivity (PSR sort gate)” value is recorded as “high polyreactivity”.
